Laboratory results taken from patent US10239925B2, “Peptides and combination of peptides for use in immunotherapy against ovarian cancer and other cancers” (IMMATICS BIOTECHNOLOGIES GMBH, priority 2015, dated 2019).

Target: HLA-A*02:01 (Homo sapiens, UniProt P04439, D140Y/D185E/D98H/E176V/E277Q/G131W/G231S/I119V/I121R/I166T/I218V/L300P/L318F/N151K/N90K/P208A/P217A/Q86G/Q94H/R138H/R169H/T345S)
Assay: MHC binding assay (UV-ligand exchange, anti-β2m ELISA, peptide exchange yield)
Settings: binding to HLA-A*02:01
Text: Candidate peptides for T cell based therapies according to the present invention were further tested for their MHC binding capacity (affinity). The individual peptide-MHC complexes were produced by UV-ligand exchange, where a UV-sensitive peptide is cleaved upon UV-irradiation, and exchanged with the peptide of interest as analyzed. Only peptide candidates that can effectively bind and stabilize the peptide-receptive MHC molecules prevent dissociation of the MHC complexes. To determine the yield of the exchange reaction, an ELISA was performed based on the detection of the light chain (β2m) of stabilized MHC complexes. The assay was performed as generally described in Rodenko et al. (Rodenko et al., 2006).
96 well MAXISorp plates (NUNC) were coated over night with 2 ug/ml streptavidin in PBS at room temperature, washed 4× and blocked for 1h at 37° C. in 2% BSA containing blocking buffer. […] Peptide-MHC monomers of the UV-exchange reaction were diluted 100 fold in blocking buffer. Samples were incubated for 1 h at 37° C., washed four times, incubated with 2 ug/ml HRP conjugated anti-β2m for 1h at 37° C., washed again and detected with TMB solution that is stopped with […]. Absorption was measured at 450 nm. Candidate peptides that show a high exchange yield (preferably higher than 50%, most preferred higher than 75%) are generally preferred for a generation and production of antibodies or fragments thereof, and/or T cell receptors or fragments thereof, as they show sufficient avidity to the MHC molecules and prevent dissociation of the MHC complexes.

Substance	Peptide exchange (MHC class I binding score, peptide exchange yield)
212 (ALWDQDNLSV; listed as Homo sapiens) [compound 212]	“++” (>20% = ++)
224 (TLIDAQWVL; listed as Homo sapiens) [compound 224]	“+++” (>50 = +++)
521 (MLLTKLPTI; listed as Homo sapiens) [compound 521]	“+++” (>50 = +++)
57 (TLAELQPPVQL; listed as Homo sapiens) [compound 57]	“+++” (>50 = +++)
409 (LLDAMNYHL; listed as Homo sapiens) [compound 409]	“++” (>20% = ++)
18 (YLVAKLVEV; listed as Homo sapiens) [compound 18]	“++” (>20% = ++)
295 (VLDRESPNV; listed as Homo sapiens) [compound 295]	“+++” (>50 = +++)
307 (ALPVSLPQI; listed as Homo sapiens) [compound 307]	“+++” (>50 = +++)
327 (GLAPFTEGISFV; listed as Homo sapiens) [compound 327]	“+++” (>50 = +++)
183 (FGLDLVTEL; listed as Homo sapiens) [compound 183]	“+++” (>50 = +++)
82 (FLSSVTYNL; listed as Homo sapiens) [compound 82]	“+++” (>50 = +++)
608 (SLLSVSHAL; listed as Homo sapiens) [compound 608]	“+++” (>50 = +++)
599 (YLLNDASLISV; listed as Homo sapiens) [compound 599]	“+++” (>50 = +++)
390 (ALFMKQIYL; listed as Homo sapiens) [compound 390]	“+++” (>50 = +++)
302 (ALLQEGEVYSA; listed as Homo sapiens) [compound 302]	“+++” (>50 = +++)
547 (TLDITPHTV; listed as Homo sapiens) [compound 547]	“+++” (>50 = +++)
568 (TLYDIAHTPGV; listed as Homo sapiens) [compound 568]	“++++” (>75% = ++++)
174 (ALAQYLITA; listed as Homo sapiens) [compound 174]	“+++” (>50 = +++)
585 (ALWDLAADKQTL; listed as Homo sapiens) [compound 585]	“++++” (>75% = ++++)
387 (ALFQATAEV; listed as Homo sapiens) [compound 387]	“++++” (>75% = ++++)
374 (FLLQQHLISA; listed as Homo sapiens) [compound 374]	“++” (>20% = ++)
519 (GLLHLTLLL; listed as Homo sapiens) [compound 519]	“+++” (>50 = +++)
35 (KINDTIYEV; listed as Homo sapiens) [compound 35]	“+++” (>50 = +++)
479 (SLFGNSGILENV; listed as Homo sapiens) [compound 479]	“+++” (>50 = +++)
350 (ALLDVTHSELTV; listed as Homo sapiens) [compound 350]	“+++” (>50 = +++)
